Laboratory results as given in patent publication US20250361280A1 (Protagonist Therapeutics, Inc., priority 2022, published 2025).

Columns and labels:
human ferroportin = target: T1, human ferroportin (Homo sapiens, UniProt Q9NP59); assay: FPN internalization assay (FPN activity assay), loss of ferroportin-GFP fluorescence; assay type: cell-based; conditions: Table 5 reference compounds; value in μM; read-out: Potency EC50
T1 sequence (Q9NP59 1-571): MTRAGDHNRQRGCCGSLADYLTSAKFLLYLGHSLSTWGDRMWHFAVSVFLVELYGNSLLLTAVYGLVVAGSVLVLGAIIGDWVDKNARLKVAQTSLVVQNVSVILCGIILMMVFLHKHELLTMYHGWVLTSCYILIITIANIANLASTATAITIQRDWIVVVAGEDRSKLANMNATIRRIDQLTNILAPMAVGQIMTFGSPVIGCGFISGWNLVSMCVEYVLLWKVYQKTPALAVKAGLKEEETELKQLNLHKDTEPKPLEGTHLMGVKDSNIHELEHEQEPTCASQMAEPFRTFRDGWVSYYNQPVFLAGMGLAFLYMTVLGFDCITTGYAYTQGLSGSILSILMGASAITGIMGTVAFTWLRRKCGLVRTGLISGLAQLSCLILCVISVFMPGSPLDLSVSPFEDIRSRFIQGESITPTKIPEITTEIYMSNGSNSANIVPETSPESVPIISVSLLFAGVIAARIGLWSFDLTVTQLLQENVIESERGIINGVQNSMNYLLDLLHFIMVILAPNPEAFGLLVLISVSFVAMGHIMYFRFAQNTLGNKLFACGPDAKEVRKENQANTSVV
Protocol: Peptide analogues were tested in vitro for induction of internalization of the human ferroportin protein. Following internalization, the ferroporin protein is degraded. The assay used (FPN activity assay) measures a decrease in fluorescence of the receptor.
The cDNA encoding the human ferroportin (SLC40A1) was cloned from a cDNA clone from Origene (NM_014585). The DNA encoding the ferroportin was amplified by PCR using primers also encoding terminal restriction sites for subcloning, but without the termination codon. The ferroportin receptor was subcloned into a mammalian GFP expression vector containing a neomycin (G418) resistance marker in such that the reading frame of the ferroportin was fused in frame with the GFP protein. The fidelity of the DNA encoding the protein was confirmed by DNA sequencing. HEK293 cells were used for transfection of the ferroportin-GFP receptor expression plasmid. The cells were grown according to standard protocol in growth medium and transfected with the plasmids using Lipofectamine (manufacturer's protocol, Invitrogen). […] The cells were propagated and frozen in aliquots.
Compound was added to desired final concentration for at least 18 hours in the incubator. […] Compound was added to desired final concentration for at least 18 hours but no more than 24 hours in the incubator.

[1] = target: T2, human ferroportin (SLC40A1) fused in frame with the GFP protein, stably expressed in HEK293 cells (human) (UniProt Q9NP59); assay: cell-based or functional assay
T2 sequence (looked up): T1 sequence (Q9NP59 1-571)

With `CC[C@@H](C)[C@@H](NC(=O)[C@H](N)Cc1ccccc1)C(=O)N[C@H](CS)C(=O)N[C@@H](C(=O)N1CCC[C@@H]1C(=O)N[C@H](Cc1ccccc1)C(=O)N[C@H](Cc1c[nH]cn1)C(=O)N[C@@H](C(=O)N[C@H](CC(=O)O)C(N)=O)[C@H](C)O)[C@H](C)CC` [RI-Mini Hepcidin, Hy-DPhe-DIle-DCys-DIle-DPro-DPhe-DHis-DThr-DAsp-NH2] the EC50 (human ferroportin) was > 10 µM.

“RI-Mini Hepcidin, Hy-DPhe-DIle-DCys-DIle-DPro-DPhe-DHis-DThr-DAsp-NH2 (peptide)” was tested, and the Potency EC50 (nM) [1] was > 10000 nM.

B1: Mini-Hepcidin 1-9, Hy-…-NH2 (peptide, from a related filing)
peptide: H-DTHFPICIF-NH2
B1 showed a Potency EC50 [1] of 712 nM.
